Test results published in patent US20250353910A1 (INVENRA, published 2025).

Key:
[1] = molecular target: T1, Cynomolgus B7H3, His-tagged protein (AcroBiosystems Cat #B73-C52Ha) (cynomolgus); assay: BLI (Octet), bispecific antibody captured on biosensor, soluble antigen; via kinetics
T1 construct: Bought soluble protein; also called Cyno B7H3
Procedure: (§1) Soluble antigens (e.g., B7H3 or GD2) were then added to the system and binding was measured.

[2] = molecular target: T2, Recombinant Rat B7-H3 Fc Chimera Protein (R&D Systems Cat #10610-B3-050) (rat, UniProt Q7TPB4 29-244); assay: as above
T2 construct: Bought Fc chimera; not shown: Fc part of the chimera
T2 sequence (looked up): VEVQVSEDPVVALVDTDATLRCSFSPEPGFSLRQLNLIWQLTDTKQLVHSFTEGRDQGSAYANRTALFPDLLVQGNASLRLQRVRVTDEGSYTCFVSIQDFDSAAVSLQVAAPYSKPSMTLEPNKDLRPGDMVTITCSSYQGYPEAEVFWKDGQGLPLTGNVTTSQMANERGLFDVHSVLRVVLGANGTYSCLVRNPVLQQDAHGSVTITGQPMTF
Procedure: as §1

[3] = molecular target: T1, Cynomolgus B7H3, His-tagged protein …; assay: BLI (Octet), bispecific antibody captured on biosensor, soluble antigen
Procedure: as §1

[4] = molecular target: T2, Recombinant Rat B7-H3 Fc Chimera …; assay: as above
Procedure: as §1

B1: Exemplary Bispecific Antibody 1 (B7H3 x GD2) (bispecific antibody)
chain 1: not shown
chain 2: EVQLVESGGGLVQPGGSLRLSCAASGFTFSTYYIHWVRQAPGKGLEWVAWIHPSGKYTYYADSVKGRFTISADTSKNTAYLQMNSLRAEDTAVYYCARHYQVGAMDYWGQGTLVTVSSAQPREPQVYTLPPCRDWLTKNQVSLTCLVKGFYPSDIAVEWESNGQPENNYKTTPPVLDSDGSFFLYSKLTVDKSRWQQGNVFSCSVMHEALHNHYTQKSLSLSPGK
chain 3: not shown
chain 4: EVQLVESGGGLVQPGGSLRLSCAASGSSFTGYNMNWVRQAPGKGLEWVAAIDPYYGGTYYADSVKGRFTISADTSKNTAYLQMNSLRAEDTAVYYCASGMEYWGQGTLVTVSSASTKGPSVFPLAPSSKSTSGGTAALGCLVKDYFPEPVTVSWNSGALTSGVHTFPAVLQSSGLYSLSSVVTVPSSSLGTQTYICNVNHKPSNTKVDKKVEPKSC
notes: B7H3 arm on chains 1 and 2, GD2 arm on chains 3 and 4; also called Ex. bsAb; 1×1 bispecific antibody
Kd [1]: 1.16 nM
Kd [2]: 6.88 nM
koff [3]: 0.000239 s⁻¹
kon [3]: 206000 M⁻¹ s⁻¹
koff [4]: 0.00137 s⁻¹
kon [4]: 199000 M⁻¹ s⁻¹
